Measured values taken from paper PMC4380498, “Molecular Insights into Frataxin-Mediated Iron Supply for Heme Biosynthesis in Bacillus subtilis” (PLoS ONE, 2015).
Blank lines part the entries; values can stand above or below the binder they belong to.

What was measured:
[1] = biological target: the molecule itself; assay: SEC; separation of the apo- and holo-forms of bsNos by size-exclusion chromatography after affinity purification from the crude protein extract
[2] = biological target: T1, Bacillus subtilis ferrochelatase HemH, recombinant Strep-tag II variant (Bacillus subtilis 168, UniProt P32396 1-310); assay: cell-based or functional assay
T1 sequence: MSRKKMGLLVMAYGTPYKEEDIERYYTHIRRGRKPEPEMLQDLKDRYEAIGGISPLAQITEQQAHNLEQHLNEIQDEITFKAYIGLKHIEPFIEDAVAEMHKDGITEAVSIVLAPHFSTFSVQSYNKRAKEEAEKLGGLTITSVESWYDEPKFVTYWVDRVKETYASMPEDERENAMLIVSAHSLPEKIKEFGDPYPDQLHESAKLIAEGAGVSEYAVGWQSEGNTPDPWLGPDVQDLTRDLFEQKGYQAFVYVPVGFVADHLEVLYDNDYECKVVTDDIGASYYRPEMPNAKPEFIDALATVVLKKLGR

[3] = biological target: T1, Bacillus subtilis ferrochelatase HemH, …; assay: MST; 50 nM fluorescently labelled holo-Fra (iron-charged); HemH titrated from 42.6 μM to 0.01 μM in TRIS-based NT binding analysis buffer; 25°C; Monolith NT.115; settings: both partners purified

B1: Bacillus subtilis nitric oxide synthase bsNos, recombinant His6-tagged (enzyme, Bacillus subtilis 168, UniProt O34453 1-363, looked up)
chain: MEEKEILWNEAKAFIAACYQELGKEEEVKDRLADIKSEIDLTGSYVHTKEELEHGAKMAWRNSNRCIGRLFWNSLNVIDRRDVRTKEEVRDALFHHIETATNNGKIRPTITIFPPEEKGEKQVEIWNHQLIRYAGYESDGERIGDPASCSLTAACEELGWRGERTDFDLLPLIFRMKGDEQPVWYELPRSLVIEVPITHPDIEAFSDLELKWYGVPIISDMKLEVGGIHYNAAPFNGWYMGTEIGARNLADEKRYDKLKKVASVIGIAADYNTDLWKDQALVELNKAVLHSYKKQGVSIVDHHTAASQFKRFEEQEEEAGRKLTGDWTWLIPPISPAATHIFHRSYDNSIVKPNYFYQDKPYE
notes: nitric oxide synthase bsNos of Bacillus subtilis 168, gene amplified from genomic DNA; The holo-form (with heme b) is called dimeric and the apo-form monomeric; The two were separated by size-exclusion chromatography; also called Nos-His6; holo-bsNos; not shown: His6, N-terminal, kept
- stoichiometry N [1]: 2

- Kd [3]: 1630 ± 20 nM
B2: Bacillus subtilis frataxin homologue Fra, recombinant His6-tagged (natural protein, Bacillus subtilis 168)
chain: MDVFSEYLAGIADPFHRERTEEVLTWIKNKYPNLHTEIKWNQPMFTDHGTFIIGFSVSKKHLAVAPEKVTIAHVEDDIVKAGYDYTEQLIRIPWNGPVDYTLLEKMIEFNILDKADCSTFWRK
notes: frataxin homologue Fra of Bacillus subtilis 168, gene amplified from genomic DNA; Used iron-loaded (holo-Fra, anaerobic incubation with FeCl2) or iron-free (apo-Fra); For MST it was labelled with the cysteine-reactive Monolith NT.115 Protein Labeling Kit RED; The methods say N-terminal His6-tag fusions, while legends print Fra-His6; also called Fra-His6; holo-Fra; not shown: His6, N-terminal, kept
- kcat(obs) of the frataxin-dependent conversion of protoporphyrin IX into heme b by HemH (holo-Fra varied between 0.1 and 10 μM, Michaelis-Menten fit) [2]: 0.925 s⁻¹
